± gives the uncertainty stated by the source.

This note sets out measurements from the Human Domainome abundance scans (Beltran et al. 2025).

Sequences and labels used below:
B1: Retinoic acid receptor beta, residues 85 to 161; numbered along this chain, P10826 (parent)
chain: YKPCFVCQDKSSGYHYGVSACEGCKGFFRRSIQKNMIYTCHRDKNCVINKVTRNRCQYCRLQKCFEVGMSKESVRND

Variants of B1 are the subject of this series. As to the kind of experiment: abundance fitness (aPCA) (normalised: wild type 0, dead -1); higher = more abundant; growth selection in yeast, the domain comes from the species named. Particulars: Homo sapiens.
For the variant YKPCFVCQDKSSGYHYGVSACEGCKGFFRRSIEKNMIYTCHRDKNCVINKVTRNRCQYCRLQKCFEVGMSKESVRND, the abundance fitness was -0.017 ± 0.052.

Consider YKPCFVCQDKSSGYHYGVSACEGCKGFFRRSIWKNMIYTCHRDKNCVINKVTRNRCQYCRLQKCFEVGMSKESVRND, for which the abundance fitness is -0.097 ± 0.045.

For the variant YKPCFVCQDKSSGYHYGVSACEGCKGFFRRSIYKNMIYTCHRDKNCVINKVTRNRCQYCRLQKCFEVGMSKESVRND, the abundance fitness is -0.328 ± 0.14.

With YKPCFVCQDKSSGYHYGVSACEGCKGFFRRSIRKNMIYTCHRDKNCVINKVTRNRCQYCRLQKCFEVGMSKESVRND, the abundance fitness is -0.037 ± 0.033.

Take YKPCFVCQDKSSGYHYGVSACEGCKGFFRRSIGKNMIYTCHRDKNCVINKVTRNRCQYCRLQKCFEVGMSKESVRND: the abundance fitness is -0.044 ± 0.032.

YKPCFVCQDKSSGYHYGVSACEGCKGFFRRSIFKNMIYTCHRDKNCVINKVTRNRCQYCRLQKCFEVGMSKESVRND: the abundance fitness was -0.148 ± 0.091.

For the variant YKPCFVCQDKSSGYHYGVSACEGCKGFFRRSIPKNMIYTCHRDKNCVINKVTRNRCQYCRLQKCFEVGMSKESVRND, the abundance fitness was -0.773 ± 0.18.

YKPCFVCQDKSSGYHYGVSACEGCKGFFRRSINKNMIYTCHRDKNCVINKVTRNRCQYCRLQKCFEVGMSKESVRND: the abundance fitness came to 0.066 ± 0.096.

Regarding YKPCFVCQDKSSGYHYGVSACEGCKGFFRRSIDKNMIYTCHRDKNCVINKVTRNRCQYCRLQKCFEVGMSKESVRND, the abundance fitness was determined as 0.016 ± 0.073.

Consider YKPCFVCQDKSSGYHYGVSACEGCKGFFRRSILKNMIYTCHRDKNCVINKVTRNRCQYCRLQKCFEVGMSKESVRND, for which the abundance fitness is 0.078 ± 0.038.

In the case of YKPCFVCQDKSSGYHYGVSACEGCKGFFRRSIHKNMIYTCHRDKNCVINKVTRNRCQYCRLQKCFEVGMSKESVRND, the abundance fitness is -0.175 ± 0.1.

Take YKPCFVCQDKSSGYHYGVSACEGCKGFFRRSISKNMIYTCHRDKNCVINKVTRNRCQYCRLQKCFEVGMSKESVRND: the abundance fitness is -0.014 ± 0.05.

On to YKPCFVCQDKSSGYHYGVSACEGCKGFFRRSIKKNMIYTCHRDKNCVINKVTRNRCQYCRLQKCFEVGMSKESVRND, for which the abundance fitness was -0.016 ± 0.069.

With YKPCFVCQDKSSGYHYGVSACEGCKGFFRRSIIKNMIYTCHRDKNCVINKVTRNRCQYCRLQKCFEVGMSKESVRND, the abundance fitness came to 0.028 ± 0.088.

Take YKPCFVCQDKSSGYHYGVSACEGCKGFFRRSIQKDMIYTCHRDKNCVINKVTRNRCQYCRLQKCFEVGMSKESVRND: the abundance fitness came out at 0.128 ± 0.062.

For the variant YKPCFVCQDKSSGYHYGVSACEGCKGFFRRSIQKGMIYTCHRDKNCVINKVTRNRCQYCRLQKCFEVGMSKESVRND, the abundance fitness stood at 0.077 ± 0.032.

With YKPCFVCQDKSSGYHYGVSACEGCKGFFRRSIQKAMIYTCHRDKNCVINKVTRNRCQYCRLQKCFEVGMSKESVRND, the abundance fitness amounted to 0.037 ± 0.045.

With YKPCFVCQDKSSGYHYGVSACEGCKGFFRRSIQKCMIYTCHRDKNCVINKVTRNRCQYCRLQKCFEVGMSKESVRND, the abundance fitness worked out at 0.024 ± 0.08.

Regarding YKPCFVCQDKSSGYHYGVSACEGCKGFFRRSIQKFMIYTCHRDKNCVINKVTRNRCQYCRLQKCFEVGMSKESVRND, the abundance fitness is -0.215 ± 0.11.

In the case of YKPCFVCQDKSSGYHYGVSACEGCKGFFRRSIQKEMIYTCHRDKNCVINKVTRNRCQYCRLQKCFEVGMSKESVRND, the abundance fitness was 0.159 ± 0.046.

As for YKPCFVCQDKSSGYHYGVSACEGCKGFFRRSMQKNMIYTCHRDKNCVINKVTRNRCQYCRLQKCFEVGMSKESVRND, the abundance fitness was -0.105 ± 0.061.

YKPCFVCQDKSSGYHYGVSACEGCKGFFRRSWQKNMIYTCHRDKNCVINKVTRNRCQYCRLQKCFEVGMSKESVRND: the abundance fitness is -0.432 ± 0.083.

As to YKPCFVCQDKSSGYHYGVSACEGCKGFFRRSYQKNMIYTCHRDKNCVINKVTRNRCQYCRLQKCFEVGMSKESVRND, the abundance fitness is -0.056 ± 0.099.

As for YKPCFVCQDKSSGYHYGVSACEGCKGFFRRSGQKNMIYTCHRDKNCVINKVTRNRCQYCRLQKCFEVGMSKESVRND, the abundance fitness was -0.521 ± 0.06.

Turning to YKPCFVCQDKSSGYHYGVSACEGCKGFFRRSSQKNMIYTCHRDKNCVINKVTRNRCQYCRLQKCFEVGMSKESVRND, the abundance fitness is -0.487 ± 0.098.

Turning to YKPCFVCQDKSSGYHYGVSACEGCKGFFRRSQQKNMIYTCHRDKNCVINKVTRNRCQYCRLQKCFEVGMSKESVRND, the abundance fitness is -0.261 ± 0.1.

Turning to YKPCFVCQDKSSGYHYGVSACEGCKGFFRRSVQKNMIYTCHRDKNCVINKVTRNRCQYCRLQKCFEVGMSKESVRND, the abundance fitness worked out at 0.055 ± 0.04.

Regarding YKPCFVCQDKSSGYHYGVSACEGCKGFFRRSFQKNMIYTCHRDKNCVINKVTRNRCQYCRLQKCFEVGMSKESVRND, the abundance fitness is -0.633 ± 0.22.

As to YKPCFVCQDKSSGYHYGVSACEGCKGFFRRSKQKNMIYTCHRDKNCVINKVTRNRCQYCRLQKCFEVGMSKESVRND, the abundance fitness was -0.45 ± 0.12.

On to YKPCFVCQDKSSGYHYGVSACEGCKGFFRRSPQKNMIYTCHRDKNCVINKVTRNRCQYCRLQKCFEVGMSKESVRND, for which the abundance fitness was -1.09 ± 0.37.

Take YKPCFVCQDKSSGYHYGVSACEGCKGFFRRSRQKNMIYTCHRDKNCVINKVTRNRCQYCRLQKCFEVGMSKESVRND: the abundance fitness was -0.648 ± 0.073.

YKPCFVCQDKSSGYHYGVSACEGCKGFFRRSLQKNMIYTCHRDKNCVINKVTRNRCQYCRLQKCFEVGMSKESVRND: the abundance fitness is -0.08 ± 0.049.

Consider YKPCFVCQDKSSGYHYGVSACEGCKGFFRRSDQKNMIYTCHRDKNCVINKVTRNRCQYCRLQKCFEVGMSKESVRND, for which the abundance fitness was -0.312 ± 0.14.

Consider YKPCFVCQDKSSGYHYGVSACEGCKGFFRRSNQKNMIYTCHRDKNCVINKVTRNRCQYCRLQKCFEVGMSKESVRND, for which the abundance fitness is -0.059 ± 0.11.

Take YKPCFVCQDKSSGYHYGVSACEGCKGFFRRSAQKNMIYTCHRDKNCVINKVTRNRCQYCRLQKCFEVGMSKESVRND: the abundance fitness is -0.156 ± 0.052.

YKPCFVCQDKSSGYHYGVSACEGCKGFFRRSCQKNMIYTCHRDKNCVINKVTRNRCQYCRLQKCFEVGMSKESVRND: the abundance fitness was -0.176 ± 0.075.
